Laboratory results reported in patent publication US20230212319A1, “NOVEL ANTIGEN BINDING DOMAINS AND SYNTHETIC ANTIGEN RECEPTORS INCORPORATING THE SAME” (University of Southern California, priority 2020, published 2023).

Tests used:
Type in all cases: cell-based
Nalm6 cells = assay: JNG assay, co-culture with Nalm6 cells; conditions: co-culture with Nalm6
In short: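 Read-out: % GFP-positive cells by flow cytometry after ~4 to 18 h coculture of SAR-transduced JNG cells with targets (E:T about 1:2). Scores reflect GFP induction above parental JNG controls: +/- ≈5%, + ≈10%, up to 5+ ≈50%.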

RAJI cells = assay: JNG assay, co-culture with RAJI cells; conditions: JNG cells expressing construct, co-culture with Raji
In short: (§1)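 Jurkat-NFAT-GFP (JNG) cells stably expressing SAR constructs via lentiviral transduction and puromycin/blasticidin selection were cocultured with target cells at E:T ~1:2 for ~4–18 h. NFAT-driven GFP was measured by FACS versus parental JNG cells; scores +/- to 5+ denote ~5–50% GFP-positive cells.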

RAJI-CD19-KO cells = assay: JNG assay, co-culture with RAJI-CD19-KO cells; conditions: co-culture with Raji-CD19-KO
In short: as §1

RS;411 = assay: JNG assay, co-culture with RS;411 cells; conditions: co-culture with RS411
In short: as §1

L363 cells = assay: JNG assay, co-culture with L363 cells; conditions: co-culture with L363
In short: as §1

B1: 22129 (protein)
chain: MALPVTALLLPLALLLHAARPEVQVLESGGGLVQPGGSLRLSCAASGFTFSNFAMSWVRQAPGKGLEWVSTISGSAGTTDYADSVKGRFTISRDNSKKTLYLQMNSLRVEDTAVYYCADGRGPFFDYRGQGTLVTVSSGTGGGGSGGGGSGGGGSEFDIQMTQSPSSLSASVGDRVTITCKASDHINNWLAWYQQKPGQAPKLLIYGATTLETGVPSRFSGSGSGTDYTLTISSLQPEDFATYYCQQSWNTPWTFGQGTKLEIKRLEIQNPDPAVYQLRDSKSSDKSVCLFTDFDSQTNVSQSKDSDVYITDKCVLDMRSMDFKSNSAVAWSNKSDFACANAFNNSIIPEDTFFPSSDVPCDVKLVEKSFETDTNLNFQNLSVIGFRILLLKVAGFNLLMTLRLWSSRAKRSGSGVKQTLNFDLLKLAGDVESNPGPTSATMDWIWRILFLVGAATGAHSGPQVQLQESGGGLAQAGGSLRLSCAASGRTFSMGWFRQAPGKEREFVAAITYSGGSPYYASSVRGRFTISRDNAKNTVYLQMNSLKPEDTAVYYCAANPTYGSDWNAENWGQGTQVTVSSGSGGGGSGGGGSGGGGSFEQVQLQQPGAELVKPGASVKMSCKASGYAFSSYWINWMKQKPGQGLEWIGQIYPGDGDTNYNGKFKGRATLTADTSSSTAYMQLSSLTSEDSAVYFCARSITTVVGCAMDYWGQGTSVTVSSTREDLKNVFPPEVAVFEPSKAEIAHTQKATLVCLATGFYPDHVELSWWVNGKEVHSGVCTDPQPLKEQPALNDSRYCLSSRLRVSATFWQNPRNHFRCQVQFYGLSENDEWTQDRAKPVTQIVSAEAWGRADCGITSASYHQGVLSATILYEILLGKATLYAVLVSALVLMAMVKRKDSRGRAKRSGSGATNFSLLKQAGDVEENPGPSRGHMTEYKPTVRLATRDDVPRAVRTLAAAFADYPATRHTVDPDRHIERVTELQELFLTRVGLDIGKVWVADDGAAVAVWTTPESVEAGAVFAEIGPRMAELSGSRLAAQQQMEGLLAPHRPKEPAWFLATVGVSPDHQGKGLGSAVVLPGVEAAERAGVPAFLETSAPRNLPFYERLGFTVTADVEVPEGPRTWCMTRKPGA
For B1, the “NFAT-GFP ASSAY: Nalm6” value (Nalm6 cells) was “Raji (+), Raji-CD19-KO (+), Nalm6 (+), L363 (+), RS411 (+) (refer to approximately 5%, 10%, 20%, 30%, 40% and 50% GFP positive cells)”, the “NFAT-GFP ASSAY: Raji” value (RAJI cells) was “Raji (+), Raji-CD19-KO (+), Nalm6 (+), L363 (+), RS411 (+) (refer to approximately 5%, 10%, 20%, 30%, 40% and 50% GFP positive cells)” and the “NFAT-GFP ASSAY: Raji-CD19-KO” value (RAJI-CD19-KO cells) was “Raji (+), Raji-CD19-KO (+), Nalm6 (+), L363 (+), RS411 (+) (refer to approximately 5%, 10%, 20%, 30%, 40% and 50% GFP positive cells)”. The “NFAT-GFP ASSAY: RS411” value (RS;411) was “Raji (+), Raji-CD19-KO (+), Nalm6 (+), L363 (+), RS411 (+) (refer to approximately 5%, 10%, 20%, 30%, 40% and 50% GFP positive cells)” and the “NFAT-GFP ASSAY: L363” value (L363 cells) was “Raji (+), Raji-CD19-KO (+), Nalm6 (+), L363 (+), RS411 (+) (refer to approximately 5%, 10%, 20%, 30%, 40% and 50% GFP positive cells)”.

B2: 22111 (protein)
chain: MALPVTALLLPLALLLHAARPEVQLLESGGGLVQPGGSLRLSCAASGFTFSSYAMSWVRQAPGKGLEWVSSISGSGDYIYYADSVKGRFTISRDISKNTLYLQMNSLRAEDTAVYYCAKEGTGANSSLADYRGQGTLVTVSSGTGGGGSGGGGSGGGGSEFDIQMTQSPSSLSASVGDRVTITCKASDHINNWLAWYQQKPGQAPKLLIYGATTLETGVPSRFSGSGSGTDYTLTISSLQPEDFATYYCQQSWNTPWTFGQGTKLEIKRLEDLKNVFPPEVAVFEPSEAEISHTQKATLVCLATGFYPDHVELSWWVNGKEVHSGVCTDPQPLKEQPALNDSRYCLSSRLRVSATFWQNPRNHFRCQVQFYGLSENDEWTQDRAKPVTQIVSAEAWGRADCGFTSESYQQGVLSATILYEILLGKATLYAVLVSALVLMAMVKRKDSRGRAKRSGSGATNFSLLKQAGDVEENPGPTSMDWIWRILFLVGAATGAHSFEQVQLQQPGAELVKPGASVKMSCKASGYAFSSYWINWMKQKPGQGLEWIGQIYPGDGDTNYNGKFKGRATLTADTSSSTAYMQLSSLTSEDSAVYFCARSITTVVGCAMDYWGQGTSVTVSSTRIQNPDPAVYQLRDSKSSDKSVCLFTDFDSQTNVSQSKDSDVYITDKCVLDMRSMDFKSNSAVAWSNKSDFACANAFNNSIIPEDTFFPSPESSCDVKLVEKSFETDTNLNFQNLSVIGFRILLLKVAGFNLLMTLRLWSSRAKRSGSGVKQTLNFDLLKLAGDVESNPGPSRGHMTEYKPTVRLATRDDVPRAVRTLAAAFADYPATRHTVDPDRHIERVTELQELFLTRVGLDIGKVWVADDGAAVAVWTTPESVEAGAVFAEIGPRMAELSGSRLAAQQQMEGLLAPHRPKEPAWFLATVGVSPDHQGKGLGSAVVLPGVEAAERAGVPAFLETSAPRNLPFYERLGFTVTADVEVPEGPRTWCMTRKPGA
For B2, the “NFAT-GFP ASSAY: Nalm6” value (Nalm6 cells) was 2+ (refer to approximately 5%, 10%, 20%, 30%, 40% and 50% GFP positive cells), the “NFAT-GFP ASSAY: Raji” value (RAJI cells) was 4+ (refer to approximately 5%, 10%, 20%, 30%, 40% and 50% GFP positive cells) and the “NFAT-GFP ASSAY: Raji-CD19-KO” value (RAJI-CD19-KO cells) was 3+ (refer to approximately 5%, 10%, 20%, 30%, 40% and 50% GFP positive cells). The “NFAT-GFP ASSAY: RS411” value (RS;411) was 4+ (refer to approximately 5%, 10%, 20%, 30%, 40% and 50% GFP positive cells) and the “NFAT-GFP ASSAY: L363” value (L363 cells) was 3+ (refer to approximately 5%, 10%, 20%, 30%, 40% and 50% GFP positive cells).

B3: 22127 (protein)
chain: MALPVTALLLPLALLLHAARPMLPAPKNLVVSRITEDSARLSWTAPDAAFDSFPIRYIETLIWGEAIWLDVPGSERSYDLTGLKPGTEYAVVITGVKGGRFSSPLVASFTTGTGGGGSGGGGSGGGGSEFDIQMTQSPSSLSASVGDRVTITCKASDHINNWLAWYQQKPGQAPKLLIYGATTLETGVPSRFSGSGSGTDYTLTISSLQPEDFATYYCQQSWNTPWTFGQGTKLEIKRLEIQNPDPAVYQLRDSKSSDKSVCLFTDFDSQTNVSQSKDSDVYITDKCVLDMRSMDFKSNSAVAWSNKSDFACANAFNNSIIPEDTFFPSSDVPCDVKLVEKSFETDTNLNFQNLSVIGFRILLLKVAGFNLLMTLRLWSSRAKRSGSGVKQTLNFDLLKLAGDVESNPGPTSATMDWIWRILFLVGAATGAHSGPQVQLQESGGGLAQAGGSLRLSCAASGRTFSMGWFRQAPGKEREFVAAITYSGGSPYYASSVRGRFTISRDNAKNTVYLQMNSLKPEDTAVYYCAANPTYGSDWNAENWGQGTQVTVSSGSGGGGSGGGGSGGGGSFEQVQLQQPGAELVKPGASVKMSCKASGYAFSSYWINWMKQKPGQGLEWIGQIYPGDGDTNYNGKFKGRATLTADTSSSTAYMQLSSLTSEDSAVYFCARSITTVVGCAMDYWGQGTSVTVSSTREDLKNVFPPEVAVFEPSKAEIAHTQKATLVCLATGFYPDHVELSWWVNGKEVHSGVCTDPQPLKEQPALNDSRYCLSSRLRVSATFWQNPRNHFRCQVQFYGLSENDEWTQDRAKPVTQIVSAEAWGRADCGITSASYHQGVLSATILYEILLGKATLYAVLVSALVLMAMVKRKDSRGRAKRSGSGATNFSLLKQAGDVEENPGPSRGHMTEYKPTVRLATRDDVPRAVRTLAAAFADYPATRHTVDPDRHIERVTELQELFLTRVGLDIGKVWVADDGAAVAVWTTPESVEAGAVFAEIGPRMAELSGSRLAAQQQMEGLLAPHRPKEPAWFLATVGVSPDHQGKGLGSAVVLPGVEAAERAGVPAFLETSAPRNLPFYERLGFTVTADVEVPEGPRTWCMTRKPGA
With B3 the “NFAT-GFP ASSAY: Nalm6” value (Nalm6 cells) was “Raji (+), Raji-CD19-KO (+), Nalm6 (+), L363 (+), RS411 (+) (refer to approximately 5%, 10%, 20%, 30%, 40% and 50% GFP positive cells)”, the “NFAT-GFP ASSAY: Raji” value (RAJI cells) was “Raji (+), Raji-CD19-KO (+), Nalm6 (+), L363 (+), RS411 (+) (refer to approximately 5%, 10%, 20%, 30%, 40% and 50% GFP positive cells)” and the “NFAT-GFP ASSAY: Raji-CD19-KO” value (RAJI-CD19-KO cells) was “Raji (+), Raji-CD19-KO (+), Nalm6 (+), L363 (+), RS411 (+) (refer to approximately 5%, 10%, 20%, 30%, 40% and 50% GFP positive cells)”. For the same molecule, the “NFAT-GFP ASSAY: RS411” value (RS;411) was “Raji (+), Raji-CD19-KO (+), Nalm6 (+), L363 (+), RS411 (+) (refer to approximately 5%, 10%, 20%, 30%, 40% and 50% GFP positive cells)” and the “NFAT-GFP ASSAY: L363” value (L363 cells) was “Raji (+), Raji-CD19-KO (+), Nalm6 (+), L363 (+), RS411 (+) (refer to approximately 5%, 10%, 20%, 30%, 40% and 50% GFP positive cells)”.
